The source of these data is patent publication US8067376B2, “Pharmaceutical compositions for transdermal delivery” (Forhumantech Co., Ltd., priority 2004, dated 2011).

“Also recorded” adds a separate entry of the source. Ends that are not written are not given here.

The test system of one data set is HeCaT cell line. The experiment in a line: Cell proliferation-inhibitory effect by WST-1 assay. Format: cell-based. The settings on record: 0.2, 1.5, 4.4, 13.3 and 40 μM, after 2 days. From the text: In this Example, the cell proliferation-inhibitory effect of PTD-MTX was observed by WST-1 assay (Roche Biochemical) in vitro.
To analyze the cell proliferation-inhibitory effect of PTD-MTX, a HeCaT cell line (obtained from the Department of Dermatology, College of Medicine, Chungnam National University, Korea) was used to analyze cell death. For this purpose, […] were inoculated into DMEM medium (10% FCS, antibiotics (GIBCO)) on a 96-well plate and cultured overnight. To the culture medium, MTX alone, PTD-MTX and PTD-ACA-MTX conjugates prepared in Example 1 were added with concentrations of 0.2, 1.5, 4.4, 13.3 and 40 μM respectively. After 2 days, the inhibition of proliferation of the cells was analyzed by the WST-1 assay.
In the WST-1 assay, tetrazolium salt is present in the respiratory chain of mitochondria and cleaved into a formazan dye by succinate-tetrazolium-reductase having activity only for viable cells, and if the number of viable cells increases, the entire activity of mitochondria dehydrogenase in a sample will increase. Since this increase in enzymatic activity induces an increase in the production of formazan dye, the formazan dye will show a linear correlation with the number of metabolically active cells in medium. The absorbance of the dye solution was measured with an ELISA reader to quantify the formazan dye produced by the metabolically active cells so as to observe cell proliferation ability and cell viability.
A general note: Formazan colour is commonly taken as a measure of viable cells.

A further data set has as its system DBA/1J mice. Nature of the data set: Arthritis animal model (rheumatoid arthritis induced by II-type collagen). Format: in vivo, mouse. The method, then: For in vivo verification of the pharmacological effects of the PTD-ACA-MTX conjugate, DBA/1J mice (obtained from Samtako) were injected with e II-type collagen (obtained from Sigma) to induce rheumatoid arthritis. The mice were divided into a group for intraperitoneal (I.P.) injection of the PTD-ACA-MTX conjugate prepared in Example 1, a group for transdermal administration of the PTD-ACA-MTX conjugate prepared in Example 1, and a group for intraperitoneal (I.P.) injection of MTX alone. For the groups for intraperitoneal (I.P.) injection, MTX was injected in a dosage of 0.3 mg/kg for 4 weeks, and for the group for transdermal administration, a cream-type composition consisting of 5 wt %, based on the weight of the composition, of ethanol, 15 wt % of liquid paraffin, 40 wt % of Vaseline, 0.1 wt % of the PTD-ACA-MTX conjugate, 10 wt % of glycerin and 30 wt % of polyethylene glycol was prepared and then applied on rheumatoid arthritis-induced sites four times weekly. After treatment with the drugs, the arthritis index was monitored one time each week, and after 4 weeks, the animals were sacrificed and the IL-4, IL-6, TNF-α and arthritis factor levels in the blood were measured (see FIGS. 7, 8 and 9; results obtained using PTD of SEQ ID NO: 2 are not shown in the drawings). In FIGS. 7, 8 and 9, N: normal mice; CT: mice having rheumatoid arthritis induced by injection of collagen; M1: the group injected intraperitoneally with MTX alone; M2: the group injected intraperitoneally with PTD-ACA-MTX; and M3: the group for which the ointment preparation containing the PTD-ACA-MTX conjugate was administered transdermally.

The test system of another data set is Sprague Dawley rats. Nature of the data set: Toxicity test by single subcutaneous administration to rats. Type of data set: in vivo, rat. The method, then: Toxicity by the single subcutaneous administration of PTD-ACA-MTX prepared in Example 1 was examined. Male and female Sprague Dawley rats (Samtako) were divided into an excipient control group administered with sterilized water for injection, and test groups administered with the inventive conjugate in amounts of 5, 50 and 500 mg/kg. Each of the animal groups consisted of 10 animals (five males and five females) and observed for mortality for 2 weeks, general symptoms, bodyweight change, and autopsy findings. All the test methods were performed according to toxicity test standards provided by the Korea Food and Drug Administration, and the test results are as follows.

For a further data set, the system named is beagle dogs. Nature of the data set: Toxicity test by single subcutaneous administration to beagle dogs. Format: in vivo, dog. The procedure:
Toxicity caused by single subcutaneous administration of the inventive conjugate was examined. Male and female beagle dogs were administered subcutaneously with the inventive conjugate in each of amounts of 4, 20 and 100 mg/kg. Each of the animal groups consisted of four animals (2 males and 2 females) and observed for mortality for 2 weeks, general symptoms, bodyweight change, and autopsy findings. All the test methods were performed according to toxicity test standards provided by the Korea Food and Drug Administration, and the test results are as follows.

Data set [1] has as its system New Zealand White rabbits. Nature of the data set: Skin irritation test in rabbits. Type of data set: in vivo, rabbit. Conditions: healthy and scratch skin. The procedure: The skin irritability of the inventive conjugate was examined. The inventive conjugate was applied to the healthy skin and scratch skin of New Zealand White rabbits, which were then evaluated comparatively with the healthy skin and scratch skin to which the inventive conjugate had not been applied.

Data set [2] in a line: Prior enzyme test of PTD-MTX conjugate versus MTX alone. Format: biochemical. Conditions: prior enzyme test results.
The mark [3] stands for this setting: 500 mg/kg, male and female animals.

In the case of `CN(Cc1cnc2nc(N)nc(N)c2n1)c1ccc(C(=O)N[C@@H](CCC(=O)O)C(=O)O)cc1` [MTX alone, methotrexate, reference compound], the “cell proliferation-inhibitory effect (rank order)” value in the data set on HeCaT cell line is “followed by the MTX-PTD conjugate and the MTX alone in that order; also recorded: MTX alone <PTD-MTX<PTD-ACA-MTX”.

For the compound “PTD-ACA-MTX (YARVRRRGPRR; also: aminocaproic acid linker, methotrexate conjugate, position not given here)”, the “cell proliferation-inhibitory effect (rank order)” value with HeCaT cell line is “MTX alone <PTD-MTX<PTD-ACA-MTX”; in the data set on HeCaT cell line (listed as MTX-ACA-PTD conjugate) it was “highest inhibitory effect”. Moreover, in the data set on DBA/1J mice (after treatment, H&E and M-T staining), the “inflammatory cells which have penetrated inflammatory sites (tissue photographs)” value is “greatly decreased”. Moreover, in the data set with DBA/1J mice (blood, after 4 weeks of treatment), the “amount of inflammation-mediating cytokine TNF-α” value is given as “greatly decreased”. Moreover, the “pharmacological effect in arthritis animal model” value in the data set on DBA/1J mice (group M3, transdermal ointment, compared with M2 (I.P. MTX-ACA-PTD) and M1 (I.P. MTX alone)) was “substantially the same effect”. For the same compound, the autopsy findings entry is on record as “splenomegaly was observed” in the data set on Sprague Dawley rats (500 mg/kg, female animals); “abnormal findings were not observed” in the data set with beagle dogs (4, 20 and 100 mg/kg single s.c.). Also, in the data set with Sprague Dawley rats (setting [3]), the “autopsy findings at the administration site” value was “red fluid retention and incrustation”. The general symptoms result is “congestion was observed starting from one day after the administration; also recorded: incrustation was observed starting from 2 days after the administration” in the data set on Sprague Dawley rats (setting [3]); “systemic edema was observed” in the data set on Sprague Dawley rats (500 mg/kg, male animals); “Diarrhea and soft feces were sporadically observed” with Sprague Dawley rats (4 days to 6 days after administration, group not clearly stated (500 mg/kg context)); “anorexia was observed; also recorded: diarrhea was observed” with beagle dogs (100 mg/kg, males, anorexia 2 to 4 days, diarrhea 3 days after administration, listed as inventive conjugate); “reduction in spontaneous motility was observed” in the data set with beagle dogs (100 mg/kg, one male and female, starting from 1 hour after administration); “eyelid edema was observed” in the data set on beagle dogs (groups with more than 20 mg/kg, males and females, 1 hour to 6 hours after administration). Also, the general symptoms result in the data set with beagle dogs (one male of 20 mg/kg group and one female of 100 mg/kg group) was “edema and a reduction in spontaneous motility were continued up to 2 days after administration”. The bodyweight change result in the data set on Sprague Dawley rats (500 mg/kg, male animals, 3, 7 and 14 days after administration) is “inhibition of an increase in bodyweight”; in the data set with beagle dogs (100 mg/kg, male and female animals, 3 days after administration) it was “temporary inhibition of an increase in bodyweight”. The “mortality (animals killed by the test substance)” value in the data set on Sprague Dawley rats (5, 50 and 500 mg/kg single s.c., 2 weeks) is “not observed”; in the data set with beagle dogs (4, 20 and 100 mg/kg single s.c., 2 weeks), “No animal killed by the test substance was observed”. For the same compound, the “minimum lethal dose (MLD)” value in the data set with Sprague Dawley rats (single subcutaneous administration, rats) is “more than 500 mg/kg”. Further, the minimum lethal dose result with beagle dogs (single subcutaneous administration, beagle dogs, both males and females) is given as “over 100 mg/kg”. The skin irritability classification result in data set [1] is “non-irritating substance”. Besides, the skin irritation index entry in data set [1] was “zero”.

As for “PTD-MTX (YARVRRRGPRR-NH2; not fully specified (N-terminus); also: methotrexate conjugate)”, the “cell proliferation-inhibitory effect (rank order)” value with HeCaT cell line is reported as “MTX alone <PTD-MTX<PTD-ACA-MTX”. Moreover, the “effect in enzyme test compared to MTX alone” value in data set [2] is “low effects compared to MTX alone”.
